# Assay results reported in patent US20060160146.
# Tests used:
# [1] = tested on: BE11-hAPP695 with alanine at position 17 of β-amyloid
# [2] = tested on: BE11-hAPP695 with lysine at position 17 of β-amyloid
# [3] = tested on: BE11-hAPP695 with tryptophan at position 16 of β-amyloid
# [4] = tested on: BE11-hAPP695 with proline at position 17 of β-amyloid
# [5] = tested on: BE11-hAPP695 with glutamic acid at position 17 of β-amyloid
# [6] = tested on: SEAP-APPsw fusion protein (secretory alkaline phosphatase fused to APP 581-695 with glutamic acid at position 17 of β-amyloid and Swedish mutations)
# [7] = tested on: SEAP-APPwt fusion protein (secretory alkaline phosphatase fused to APP 581-695, no Swedish mutations)
# BE11-hAPP695 with alanine at position 17 of β-amyloid, sequence (chain, as listed by the source): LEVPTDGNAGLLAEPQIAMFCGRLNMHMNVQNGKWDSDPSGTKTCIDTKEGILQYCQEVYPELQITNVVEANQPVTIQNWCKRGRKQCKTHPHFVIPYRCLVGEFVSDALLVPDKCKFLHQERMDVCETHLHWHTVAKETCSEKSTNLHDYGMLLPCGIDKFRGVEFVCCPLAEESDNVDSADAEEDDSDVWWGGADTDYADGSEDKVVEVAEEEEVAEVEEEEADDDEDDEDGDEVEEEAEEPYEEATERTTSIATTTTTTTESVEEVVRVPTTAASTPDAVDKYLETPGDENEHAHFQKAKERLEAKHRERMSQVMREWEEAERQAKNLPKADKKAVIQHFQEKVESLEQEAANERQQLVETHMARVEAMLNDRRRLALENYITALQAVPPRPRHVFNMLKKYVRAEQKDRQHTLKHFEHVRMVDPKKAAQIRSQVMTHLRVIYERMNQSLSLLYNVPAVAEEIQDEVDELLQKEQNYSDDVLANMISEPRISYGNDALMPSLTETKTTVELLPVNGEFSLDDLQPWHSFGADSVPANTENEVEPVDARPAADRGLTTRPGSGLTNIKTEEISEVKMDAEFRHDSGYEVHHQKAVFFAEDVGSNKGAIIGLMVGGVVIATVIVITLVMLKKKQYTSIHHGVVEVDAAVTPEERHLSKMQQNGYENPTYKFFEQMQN
# BE11-hAPP695 with glutamic acid at position 17 of β-amyloid, sequence (chain, as listed by the source): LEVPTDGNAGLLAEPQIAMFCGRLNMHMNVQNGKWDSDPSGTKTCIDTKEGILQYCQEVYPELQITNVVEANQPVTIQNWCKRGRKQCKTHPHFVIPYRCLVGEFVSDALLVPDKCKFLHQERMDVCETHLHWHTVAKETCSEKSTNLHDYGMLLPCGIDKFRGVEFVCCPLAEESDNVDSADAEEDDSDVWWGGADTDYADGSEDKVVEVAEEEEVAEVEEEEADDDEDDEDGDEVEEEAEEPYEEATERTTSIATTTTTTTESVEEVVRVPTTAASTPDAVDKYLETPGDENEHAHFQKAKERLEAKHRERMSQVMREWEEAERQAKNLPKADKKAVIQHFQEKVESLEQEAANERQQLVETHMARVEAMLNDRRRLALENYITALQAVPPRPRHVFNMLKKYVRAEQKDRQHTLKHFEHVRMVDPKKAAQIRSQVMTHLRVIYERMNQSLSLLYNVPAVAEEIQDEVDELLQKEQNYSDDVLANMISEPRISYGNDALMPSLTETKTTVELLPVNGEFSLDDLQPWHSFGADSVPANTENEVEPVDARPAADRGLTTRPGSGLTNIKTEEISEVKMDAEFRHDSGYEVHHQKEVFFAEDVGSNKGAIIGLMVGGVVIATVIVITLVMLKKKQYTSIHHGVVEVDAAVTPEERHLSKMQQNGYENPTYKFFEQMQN
# BE11-hAPP695 with lysine at position 17 of β-amyloid, sequence (chain, as listed by the source): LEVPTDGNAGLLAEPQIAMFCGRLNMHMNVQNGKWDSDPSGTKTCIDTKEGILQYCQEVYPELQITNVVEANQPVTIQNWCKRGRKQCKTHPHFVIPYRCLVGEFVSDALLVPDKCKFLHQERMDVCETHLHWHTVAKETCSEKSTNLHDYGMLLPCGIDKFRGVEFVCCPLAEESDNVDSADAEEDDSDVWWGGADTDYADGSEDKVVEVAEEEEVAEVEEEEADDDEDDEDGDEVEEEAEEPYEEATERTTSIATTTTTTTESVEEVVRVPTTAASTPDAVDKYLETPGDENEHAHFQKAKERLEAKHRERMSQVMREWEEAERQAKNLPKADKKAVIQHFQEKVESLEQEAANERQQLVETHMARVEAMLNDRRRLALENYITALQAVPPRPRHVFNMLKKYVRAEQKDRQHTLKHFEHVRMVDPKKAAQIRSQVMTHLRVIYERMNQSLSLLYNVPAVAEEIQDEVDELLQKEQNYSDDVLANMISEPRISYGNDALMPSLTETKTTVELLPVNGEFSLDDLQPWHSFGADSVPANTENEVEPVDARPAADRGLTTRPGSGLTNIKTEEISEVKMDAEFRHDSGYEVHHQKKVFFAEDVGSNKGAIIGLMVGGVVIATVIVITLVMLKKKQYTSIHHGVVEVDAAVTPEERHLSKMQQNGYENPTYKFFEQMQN
# BE11-hAPP695 with tryptophan at position 16 of β-amyloid, sequence (chain, as listed by the source): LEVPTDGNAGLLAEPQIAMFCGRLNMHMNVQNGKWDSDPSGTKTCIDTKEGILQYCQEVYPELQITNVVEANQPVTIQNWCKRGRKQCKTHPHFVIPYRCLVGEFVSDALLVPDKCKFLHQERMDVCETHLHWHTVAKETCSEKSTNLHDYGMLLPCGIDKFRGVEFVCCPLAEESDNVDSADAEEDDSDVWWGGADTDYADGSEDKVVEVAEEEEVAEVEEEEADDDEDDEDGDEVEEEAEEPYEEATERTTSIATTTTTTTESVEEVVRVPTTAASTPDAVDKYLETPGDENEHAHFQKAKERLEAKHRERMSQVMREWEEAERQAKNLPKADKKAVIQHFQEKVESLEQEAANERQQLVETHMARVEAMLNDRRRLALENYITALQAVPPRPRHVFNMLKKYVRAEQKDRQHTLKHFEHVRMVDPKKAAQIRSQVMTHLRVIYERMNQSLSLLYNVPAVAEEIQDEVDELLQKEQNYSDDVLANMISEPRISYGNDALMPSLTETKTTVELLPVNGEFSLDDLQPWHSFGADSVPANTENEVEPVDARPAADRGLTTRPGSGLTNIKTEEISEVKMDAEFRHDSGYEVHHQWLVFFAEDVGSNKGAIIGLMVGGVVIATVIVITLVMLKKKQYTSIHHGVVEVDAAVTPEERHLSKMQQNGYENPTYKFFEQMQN
# BE11-hAPP695 with proline at position 17 of β-amyloid, sequence (chain, as listed by the source): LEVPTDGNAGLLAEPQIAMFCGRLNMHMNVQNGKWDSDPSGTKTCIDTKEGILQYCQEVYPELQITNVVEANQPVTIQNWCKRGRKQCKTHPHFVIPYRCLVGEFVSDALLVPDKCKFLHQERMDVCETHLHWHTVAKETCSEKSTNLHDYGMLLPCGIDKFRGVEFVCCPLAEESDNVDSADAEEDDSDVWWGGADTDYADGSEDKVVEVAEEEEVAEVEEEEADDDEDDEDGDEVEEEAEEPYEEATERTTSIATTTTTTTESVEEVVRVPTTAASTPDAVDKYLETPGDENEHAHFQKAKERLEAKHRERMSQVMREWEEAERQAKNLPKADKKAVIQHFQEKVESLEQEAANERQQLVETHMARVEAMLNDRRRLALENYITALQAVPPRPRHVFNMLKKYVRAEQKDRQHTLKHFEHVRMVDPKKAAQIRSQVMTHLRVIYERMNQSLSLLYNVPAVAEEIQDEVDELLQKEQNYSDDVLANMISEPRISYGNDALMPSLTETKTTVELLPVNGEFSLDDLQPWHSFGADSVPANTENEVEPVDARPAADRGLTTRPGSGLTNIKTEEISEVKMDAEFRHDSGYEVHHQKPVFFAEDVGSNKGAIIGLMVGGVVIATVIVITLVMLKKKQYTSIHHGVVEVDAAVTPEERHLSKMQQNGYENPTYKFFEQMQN
substance,measurement,setting,value
α-secretase (endogenous activity of the COS7 cells of Example 1),"α-cleavage: amount of α-secretase cleavage product (sAPPα) in culture supernatant, Western blotting",[1],↓
same,"α-cleavage: amount of α-secretase cleavage product (sAPPα) in culture supernatant, Western blotting",[2],↓↓
same,"α-cleavage: amount of α-secretase cleavage product (sAPPα) in culture supernatant, Western blotting",[3],↓↓
same,"α-cleavage: amount of α-secretase cleavage product (sAPPα) in culture supernatant, Western blotting",[4],0
same,"α-cleavage: amount of α-secretase cleavage product (sAPPα) in culture supernatant, Western blotting",[5],0
β-secretase (endogenous activity of the COS7 cells of Example 1),"β-cleavage: amount of β-secretase cleavage product (sAPPβ) in culture supernatant, Western blotting",[1],→
same,"β-cleavage: amount of β-secretase cleavage product (sAPPβ) in culture supernatant, Western blotting",[2],↑
same,"β-cleavage: amount of β-secretase cleavage product (sAPPβ) in culture supernatant, Western blotting",[3],→
same,"β-cleavage: amount of β-secretase cleavage product (sAPPβ) in culture supernatant, Western blotting",[4],→
same,"β-cleavage: amount of β-secretase cleavage product (sAPPβ) in culture supernatant, Western blotting",[5],→
α-secretase (endogenous activity of the CHO-K1 cells of Example 2),"α-cleavage product in culture supernatant, Western blotting",[6],no α-cleavage product was detected in any culture supernatant
same,"α-cleavage product in culture supernatant, Western blotting",[7],no α-cleavage product was detected in any culture supernatant
β-secretase (endogenous activity of the CHO-K1 cells of Example 2),β-amyloid production,[6],produced 5 to 10 times as much β-amyloid
same,"β-secretase cleavage product in culture supernatant, Western blotting",[6],a β-secretase cleavage product was detected only in the fusion protein expression cell line (S)
same,"β-secretase cleavage product in culture supernatant, Western blotting",[7],a β-secretase cleavage product was detected only in the fusion protein expression cell line (S)
